For one molecule, IC50, koff and Kd results are on record in US20050214207A1 (published 2005).

For assay [1], the target named is T1, TR7-Fc fusion protein (Ala-Asp-Pro fused to E52-G184 of TR7, SEQ ID NO:3, fused to the Fc region) (human, UniProt O14763 52-184).
T1 construct: Expressed in baculovirus with the GP signal peptide; it is read as TR7; also called TR7-Fc receptor; TRAILR2; not shown: Fc region
Description: competition ELISA: inhibition of biotinylated TRAIL binding to TR7-Fc captured on anti-human Fc. The protocol: Goat anti-human Fc is diluted to 0.1 micrograms/ml in coating buffer. An Immulon 4 microplate is coated with 100 microliters per well of the Goat anti-human Fc solution and incubated overnight at 4° C. The coating solution is decanted from the plate, and blocking solution is dispensed at 200 microliters per well. The plate is incubated at room temperature for 1 hour. After the 1 hour incubation period, the blocking solution is decanted from the plate and 1 microgram/mL of TR7-Fc is dispensed at 100 microliters/well and incubated for 2 hours at room temperature. After the incubation, the plate is washed five times manually using a Wheaton manifold.
Antibodies corresponding to scFvs of the present invention are (previously) prepared in a low binding dilution plate using diluent. The antibodies are prepared in duplicate and are diluted from the stock concentration with 2.5 fold dilutions for the 7 subsequent wells. If a purified form of the antibody is available, the starting concentration is 5 micrograms/mL. The positive control (TR7-Fc) is diluted from 5 micrograms/mL. 100 microliters is transferred into the ELISA plate and pre-incubated for 30 minutes at room temperature. […]
After the one-hour incubation, the plate is decanted and washed with PBST five times and blotted. […] The plate is immediately read at 450 nm using the spectrometer from Molecular Devices.

The target of assay [2] is T1, TR7-Fc fusion protein (Ala-Asp-Pro …). Description: SPR (BIAcore 2000), TR7-Fc amine-coupled to CM5 chip, antibody as analyte, separate fitting of the dissociation phase. The protocol:
(§1) TR7-Fc and TR2-Fc were immobilized on individual flow cells of a BIAcore CM5 sensor chip (BIAcore, Cat# BR-1000-14). Amine coupling (BIAcore, Cat# BR-1000-50) was used to covalently bind each receptor to the dextran matrix on the sensor chip. The optimal pH for this coupling was analyzed using preconcentration experiments ranging from pH 4-7 and was determined to be pH 4.0 based on the slope of the binding. The actual coupling was performed using the manual injection mode. A target level of 200 relative units (RU) was set as the goal for both flow cells. A response of 1000 RU correlates to a change in surface concentration of about 1 ng/mm² for proteins. The molecular weight of the TR7 and TR2 fusion proteins was nearly identical. The concentration of both receptors for immobilization was 5 μg/ml in 10 mM acetate, pH 4.0 (BIAcore, Cat# BR-1003-49). The entire experiment was performed at a flow rate of 5 μL/min. Contact time for the N-ethyl-N′-(3-dimethylaminoprolpyl)carbodiimide hydrochloride/Ethanolamine hydrochloride-NaOH, pH 8.5 (EDC/NHS) injection was 3 minutes. […]
(§2) Analysis of CM005G08 kinetics was performed using the BIAcore 2000 instrument with the 2000 control software, version 3.1.1. […] The off rate of CM005G08 was determined by washing the complex in the presence of HBS-EP buffer for 10 minutes. […]
(§3) The binding data were analyzed using the BIAevaluation software, version 3.1. […]

Assay [3] shares this target. Description: SPR (BIAcore 2000), TR7-Fc amine-coupled to CM5 chip, antibody as analyte, 1:1 Langmuir model, double-reference subtraction, mean±STD of three experiments. How it is done: as §1, §2, §3
(In general: Surface plasmon resonance follows binding to a sensor surface in real time, without labels.)

Values joined by “and” are separate entries in the source; they are usually repeats but may differ in a detail not shown here. Identical values can stand only once.

B1: CM005G08 whole IgG1 antibody comprising the VH and VL domains of the CM005G08 scFv (antibody, V domains shown)
VH: EVQLVQSGGGVERPGGSLRLSCAASGFTFDDYGMSWVRQAPGKGLEWVSGINWNGGSTGYADSVKGRVTISRDNAKNSLYLQMNSLRAEDTAVYYCAKILGAGRGWYFDLWGKGTTVTVSS
VL: SSELTQDPAVSVALGQTVRITCQGDSLRSYYASWYQQKPGQAPVLVIYGKNNRPSGIPDRFSGSSSGNTASLTITGAQAEDEADYYCNSRDSSGNHVVFGGGTKLTVLG
notes: Two lots were tested; also called CM05G08; IgG1 format of CM005G08
As usually defined, the IC50 is the concentration at which inhibition is half-maximal. High values mean a need for much substance, low ones inhibition by little substance. What is called koff is a measure of how fast the partners let go of each other. High values mean a short-lived complex, low ones a long-lived complex. For orientation: Kd means the concentration at which binding is half-saturated. Higher therefore signals weaker binding. Turning to B1, the IC50 in assay [1] was 5.3 nM and 6.89 nM. For the same molecule, the koff in assay [2] is 0.00266 s⁻¹ and 0.00268 s⁻¹. Further, in assay [3], the Kd is 0.25 nM and 0.33 nM.
